The values that follow come from PMC7474679 (Proceedings of the National Academy of Sciences of the …, 2020).

No end group written: not given here. *: point of attachment. FITC = O=C1OC2(c3ccc(O)cc3Oc3cc(O)ccc32)c2ccc(NC(=S)*)cc21

The target in the assay is T1, Full-length S. cerevisiae Pex5 (S. cerevisiae, UniProt P35056 1-612).
T1 sequence: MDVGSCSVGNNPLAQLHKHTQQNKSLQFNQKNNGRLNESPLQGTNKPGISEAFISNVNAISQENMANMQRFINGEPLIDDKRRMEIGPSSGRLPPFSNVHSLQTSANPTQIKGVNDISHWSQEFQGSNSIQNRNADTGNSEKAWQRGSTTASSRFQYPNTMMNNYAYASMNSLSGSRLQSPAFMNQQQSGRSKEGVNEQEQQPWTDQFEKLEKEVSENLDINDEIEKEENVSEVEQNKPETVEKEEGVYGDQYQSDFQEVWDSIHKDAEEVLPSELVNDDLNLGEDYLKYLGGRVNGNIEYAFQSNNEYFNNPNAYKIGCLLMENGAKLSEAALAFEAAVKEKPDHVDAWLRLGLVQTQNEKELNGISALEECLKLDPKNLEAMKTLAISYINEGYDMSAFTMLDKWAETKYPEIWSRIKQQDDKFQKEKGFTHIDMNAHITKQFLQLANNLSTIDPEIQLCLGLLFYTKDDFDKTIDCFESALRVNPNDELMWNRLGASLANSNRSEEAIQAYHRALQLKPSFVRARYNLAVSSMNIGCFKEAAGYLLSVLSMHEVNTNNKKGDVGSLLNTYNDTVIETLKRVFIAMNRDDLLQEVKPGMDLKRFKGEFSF
The assay can be described thus: fluorescence polarisation. (In general: In fluorescence polarisation assays a small probe gives low polarisation when free and higher when bound to something large.)

By Kd is commonly meant the free concentration of one partner at which half of the binding sites on the other are occupied at equilibrium, for simple one-to-one binding. In turn, {FITC}-YKSSRNKSKL [Pcs60 peptide (FITC-YKSSRNKSKL)] displayed a Kd of 455 ± 43.8 nM. With {FITC}-YNENKRKAKL [Cat2 peptide (FITC-YNENKRKAKL)], binding was put at a Kd of 49.9 ± 4.1 nM. Compared with the last molecule, the Kd is about 9.1-fold lower.

In turn, {FITC}-GMDELYKSKL [mCherry-SKL peptide (FITC-GMDELYKSKL)] came in with a Kd of 9840 nM. Take {FITC}-YARVKRSSRL [Lys1 peptide (FITC-YARVKRSSRL)]: the Kd turned out to be 29.3 ± 3.65 nM.
